For this assay, the target named is PelC lipoprotein (P. aeruginosa). Nature of the assay: cryo-EM structure.

With PelC lipoprotein (natural protein), the stoichiometry N worked out at 12 subunits.

As usually defined, the stoichiometry N is a count of units in the complex or per binding partner.
